Reference: patent US20100184672A1 (published 2010)

Legend:
[1] = target: T1, glycocalicin (the proteolytic fragment of GPIb) (human, UniProt P07359 17-506); experiment: SPR, comparison of Kd with that of VWF A1 on glycocalicin
T1 construct: domain: glycocalicin (the proteolytic fragment of GPIb); Purified from human platelets; coated on the SPR sensor
Text: (§1) The sensorgrams at different concentrations were obtained and normalized by subtracting background signals from the glycocalicin surface.

[2] = target: T1, glycocalicin (the proteolytic fragment …); experiment: SPR, ligand perfused over glycocalicin-coated sensor, Langmuir one-to-one fit
Text: as §1

B1: Activated protein C (APC), human plasma-derived (enzyme)
chain 1: ANSFLEELRHSSLERECIEEICDFEEAKEIFQNVDDTLAFWSKHVDGDQCLVLPLEHPCASLCCGHGTCIDGIGSFSCDCRSGWEGRFCQREVSFLNCSLDNGGCTHYCLEEVGWRRCSCAPGYKLGDDLLQCHPAVKFPCGRPWKRMEKKRSHL
chain 2: LIDGKMTRRGDSPWQVVLLDSKKKLACGAVLIHPSWVLTAAHCMDESKKLLVRLGEYDLRRWEKWELDLDIKEVFVHPNYSKSTTDNDIALLHLAQPATLSQTIVPICLPDSGLAERELNQAGQETLVTGWGYHSSREKEAKRNRTFVLNFIKIPVVPHNECSEVMSNMVSENMLCAGILGDRQDACEGDSGGPMVASFHGTWFLVGLVSWGEGCGLLHNYGVYTKVSRYLDWIHGHIRDKEAPQKSWAP
notes: mature
Q: With B1 as the binder, how does the “fold difference against the interaction of GPIb and VWF A1” value [1] read?
A: ~10 fold

Q: And the Kd [2]?
A: 308 nM
